Assay results reported in patent US20220389118A1 (Chugai, published 2022).
Changes are numbered by the printed parent chain.

T1: human FcγRIIa type H extracellular domain with C-terminal His tag (human, UniProt P12318 34-217)
T1 construct: extracellular domain; also called FcγRIIaH; FcγRIIa(H)
T1 sequence (looked up): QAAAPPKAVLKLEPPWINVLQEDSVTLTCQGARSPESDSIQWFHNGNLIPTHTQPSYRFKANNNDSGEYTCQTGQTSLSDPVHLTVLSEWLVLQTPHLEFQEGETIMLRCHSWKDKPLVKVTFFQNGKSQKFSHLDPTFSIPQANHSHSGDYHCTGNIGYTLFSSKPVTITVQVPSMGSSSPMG

T2: human FcγRIIa type R extracellular domain with C-terminal His tag (human, UniProt P12318 34-217)
T2 construct: extracellular domain; also called FcγRIIaR; FcγRIIa(R)
T2 sequence (looked up): T1 sequence (looked up) with H134R

T3: human FcγRIIb extracellular domain with C-terminal His tag (human, UniProt P31994 43-217)
T3 construct: extracellular domain
T3 sequence (looked up): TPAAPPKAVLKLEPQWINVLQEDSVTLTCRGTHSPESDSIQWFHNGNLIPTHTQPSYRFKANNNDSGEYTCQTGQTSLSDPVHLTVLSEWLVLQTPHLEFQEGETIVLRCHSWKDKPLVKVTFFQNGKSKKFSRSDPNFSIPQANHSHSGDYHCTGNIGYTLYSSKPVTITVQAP

T4: human FcγRIIb extracellular domain with C-terminal His tag (human, UniProt P31994 43-217)
T4 construct: extracellular domain; also called FcgRIIb
T4 sequence (looked up): T3 sequence (looked up)

B1: IL6R-BP438/IL6R-L (antibody, human IgG1, kappa)
heavy: QVQLQESGPGLVKPSETLSLTCAVSGHSISHDHAWSWVRQPPGEGLEWIGFISYSGITNYNPSLQGRVTISRDNSKNTLYLQMNSLRAEDTAVYYCARSLARTTAMDYWGEGTLVTVSSASTKGPSVFPLAPSSKSTSGGTAALGCLVKDYFPEPVTVSWNSGALTSGVHTFPAVLQSSGLYSLSSVVTVPSSSLGTQTYICNVNHKPSNTKVDKKVEPKSCDKTHTCPPCPAPDLLGDDSVFLFPPKPKDTLMISRTPEVTCVVVDVAEEDGEVKFNWYVDGVEVHNAKTKPREEQYNSTYRVVSVLTVLHQDWLNGKEYKCKVSNKALPRPTEKTISKAKGQPREPQVYTLPPSRDELTKNQVSLTCLVKGFYPSDIAVEWESNGQPENNYKTTPPVLDSDGSFFLYSKLTVDKSRWQQGNVFSCSVMHEALHNHYTQESLSLSP
light: not shown
notes: copies: 2 + 2
B2: IL6R-BP504/IL6R-L (antibody, human IgG1, kappa)
heavy: B1 heavy with V266I, E274P, R332A, T334I
light: not shown
notes: copies: 2 + 2
B3: IL6R-BP558/IL6R-L (antibody, human IgG1, kappa)
heavy: B1 heavy with D235E, V266I, A269G, E274D, T334I
light: not shown
notes: copies: 2 + 2
B4: IL6R-BP142/IL6R-L (antibody, human IgG1, kappa)
heavy: B1 heavy with D235E, D239G, A269S, E270H, G273P, K328N, R332A, T334I
light: not shown
notes: IgG1 type
B5: IL6R-BP509/IL6R-L (antibody, human IgG1, kappa)
heavy: B1 heavy with V266I, E274D, Y298D, R332A, T334I
light: not shown
notes: copies: 2 + 2
B6: IL6R-BP510/IL6R-L (antibody, human IgG1, kappa)
heavy: B1 heavy with D235E, V266I, E274P, T334I
light: not shown
notes: copies: 2 + 2
B7: IL6R-BP491/IL6R-L (antibody, human IgG1, kappa)
heavy: B1 heavy with D235E, V266I, Y298D, T334I
light: not shown
notes: also called IL6R-491/IL6R-L; copies: 2 + 2
B8: IL6R-2B169/IL6R-L (antibody, human IgG1, kappa)
heavy: B1 heavy with D235E, D239G, A269S, E270H, G273P, V325I, R332A, T334I
light: not shown
notes: IgG1 type
B9: IL6R-BP508/IL6R-L (antibody, human IgG1, kappa)
heavy: B1 heavy with V266I, E274P, Y298D, R332A, T334I
light: not shown
notes: copies: 2 + 2
B10: IL6R-BP487/IL6R-L (antibody, human IgG1, kappa)
heavy: B1 heavy with V266I, T334I, P398M
light: not shown
notes: copies: 2 + 2
B11: IL6R-BP136/IL6R-L (antibody, human IgG1, kappa)
heavy: B1 heavy with D235E, D239G, A269S, E270H, G273P, K328A, R332A, T334I
light: not shown
notes: IgG1 type
B12: IL6R-BP110/IL6R-L (antibody, human IgG1, kappa)
heavy: B1 heavy with D235E, D239G, A269S, E270N, G273P, R332A, T334I
light: not shown
notes: IgG1 type
B13: IL6R-BP505/IL6R-L (antibody, human IgG1, kappa)
heavy: B1 heavy with V266I, E274D, R332A, T334I
light: not shown
notes: copies: 2 + 2
B14: IL6R-BP121/IL6R-L (antibody, human IgG1, kappa)
heavy: B1 heavy with D235E, D239G, A269S, E270H, G273P, K328Q, R332A, T334I
light: not shown
notes: IgG1 type
B15: IL6R-BP554/IL6R-L (antibody, human IgG1, kappa)
heavy: B1 heavy with D235E, V266I, E274D, T334I
light: not shown
notes: copies: 2 + 2
B16: IL6R-2B128/IL6R-L (antibody, human IgG1, kappa)
heavy: B1 heavy with D235E, D239G, A269S, E270H, G273P, Y298D, R332A, T334I
light: not shown
notes: IgG1 type
B17: IL6R-BP489/IL6R-L (antibody, human IgG1, kappa)
heavy: B1 heavy with V266I, Y298D, T334I, P398M
light: not shown
notes: copies: 2 + 2
B18: IL6R-2B002/IL6R-L (antibody, human IgG1, kappa)
heavy: B1 heavy with D239G, A269S, E270H, G273P, R332A, T334I
light: not shown
notes: IgG1 type
B19: IL6R-BP112/IL6R-L (antibody, human IgG1, kappa)
heavy: B1 heavy with D235E, D239G, A269S, E270H, R332A, T334I
light: not shown
notes: IgG1 type
B20: IL6R-BP496/IL6R-L (antibody, human IgG1, kappa)
heavy: B1 heavy with V266I, Y298D, R332A, T334I
light: not shown
notes: copies: 2 + 2
B21: IL6R-BP484/IL6R-L (antibody, human IgG1, kappa)
heavy: B1 heavy with E271D, R332A, T334I
light: not shown
notes: copies: 2 + 2
B22: IL6R-BP549/IL6R-L (antibody, human IgG1, kappa)
heavy: B1 heavy with D235E, A269G, T334I
light: not shown
notes: copies: 2 + 2
B23: IL6R-BP912/IL6R-L (antibody, human IgG1, kappa)
heavy: B1 heavy with D235E, D239G, A269S, E270H, G273P, T334I
light: not shown
notes: IgG1 type
B24: IL6R-BP494/IL6R-L (antibody, human IgG1, kappa)
heavy: B1 heavy with D235E, Y298D, T334I
light: not shown
notes: copies: 2 + 2

Tests used:
[1] = biological target: T1, human FcγRIIa type H extracellular …; assay: SPR (Biacore)
[2] = biological target: T2, human FcγRIIa type R extracellular …; assay: SPR (Biacore)
[3] = biological target: T3, human FcγRIIb extracellular domain with …; assay: SPR (Biacore), parent IL6R-B3/IL6R-L
[4] = biological target: T2, human FcγRIIa type R extracellular …; assay: SPR (Biacore), parent IL6R-B3/IL6R-L
[5] = biological target: T3, human FcγRIIb extracellular domain with …; assay: SPR (Biacore)
[6] = biological target: T5, human FcγRIa extracellular domain with C-terminal His tag (human, UniProt P12314 16-292); assay: SPR (Biacore)
T5 construct: extracellular domain
T5 sequence (P12314 16-292): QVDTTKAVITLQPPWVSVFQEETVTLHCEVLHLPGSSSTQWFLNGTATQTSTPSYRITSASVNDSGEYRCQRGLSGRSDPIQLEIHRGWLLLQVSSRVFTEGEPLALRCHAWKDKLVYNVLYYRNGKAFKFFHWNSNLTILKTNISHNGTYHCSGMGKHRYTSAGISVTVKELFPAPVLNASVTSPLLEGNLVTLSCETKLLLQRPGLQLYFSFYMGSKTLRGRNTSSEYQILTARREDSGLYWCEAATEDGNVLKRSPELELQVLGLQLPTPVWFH

[7] = biological target: T3, human FcγRIIb extracellular domain with …; assay: SPR (Biacore), ratio of KDs
[8] = biological target: T4, human FcγRIIb extracellular domain with …; assay: SPR (Biacore), antibody captured, FcγR as analyte

Row | Binder | Kd [1] | Kd [2] | KD(IIb) parent/KD(IIb) altered polypeptide [3] | KD(IIaR) parent/KD(IIaR) altered polypeptide [4] | Kd [5] | Kd [6] | KD(IIaH)/KD(IIb) [7] | KD(IIaR)/KD(IIb) [7] | KD(IIb) of parent polypeptide/KD(IIb) of altered polypeptide [8] | Kd [8]
1 | B1 | 1.6 µM | 0.18 µM | – | – | – | – | – | – | – | –
2 | B2 | – | 0.45 µM | 128 | 2.4 | 0.024 µM | 0.0014 µM | 658 | 18.5 | – | –
3 | B3 | 4.9 µM | 0.33 µM | – | – | 0.009 µM | – | – | – | – | –
4 | B4 | – | – | – | – | – | – | – | – | 2.6 fold vs IL6R-B3/IL6R-L | –
5 | B5 | – | 0.52 µM | 174 | 2.1 | 0.018 µM | 0.0011 µM | 444 | 29.2 | – | –
6 | B6 | 4 µM | – | – | – | 0.0038 µM | 0.006 µM | – | – | – | –
7 | B7 | 2.2 µM | 0.12 µM | 1020 | 9.3 | 0.003 µM | 0.0053 µM | 724 | 38.8 | – | –
8 | B8 | – | – | – | – | – | – | – | – | 2.6 fold vs IL6R-B3/IL6R-L | –
9 | B9 | – | 0.54 µM | 149 | 2 | 0.021 µM | 0.0014 µM | 962 | 26 | – | –
10 | B10 | 0.84 µM | 0.039 µM | 2700 | 28.3 | 0.0012 µM | 0.0012 µM | 730 | 33.8 | – | –
11 | B11 | – | – | – | – | – | – | – | – | 3.9 fold vs IL6R-B3/IL6R-L | 0.8 µM
12 | B12 | – | – | – | – | – | – | – | – | 2.1 fold vs IL6R-B3/IL6R-L | –
13 | B13 | – | 0.43 µM | 145 | 2.6 | 0.021 µM | 0.0011 µM | 514 | 20 | – | –
14 | B14 | – | – | – | – | – | – | – | – | 2.8 fold vs IL6R-B3/IL6R-L | –
15 | B15 | 2.3 µM | – | – | – | – | 0.008 µM | – | – | – | –
16 | B16 | – | – | – | – | – | – | – | – | 2.1 fold vs IL6R-B3/IL6R-L | –
17 | B17 | 0.87 µM | 0.043 µM | 3100 | 25.7 | 0.001 µM | 0.0013 µM | 870 | 42.8 | – | –
18 | B18 | – | – | – | – | – | – | – | – | 3.3 fold vs IL6R-B3/IL6R-L | –
19 | B19 | – | – | – | – | – | – | – | – | 9.7 fold vs IL6R-B3/IL6R-L | –
20 | B20 | 3.7 µM | 0.47 µM | 168 | 2.3 | 0.018 µM | 0.0012 µM | 201 | 25.5 | – | –
21 | B21 | – | 0.78 µM | 67.8 | 1.4 | 0.046 µM | 0.00082 µM | 241 | 17.1 | – | –
22 | B22 | – | 0.57 µM | 196 | 1.9 | 0.016 µM | 0.018 µM | 696 | 35.9 | – | –
23 | B23 | – | – | – | – | – | – | – | – | 2.1 fold vs IL6R-B3/IL6R-L | –
24 | B24 | – | 0.25 µM | 471 | 4.3 | 0.0066 µM | 0.0039 µM | 821 | 38.6 | – | –
